# In patent US20250127904A1, “SIGLEC LIGANDS, CONJUGATES, AND METHODS OF USE THEREOF” (Osprey Biopharmaceuticals, Inc., priority 2023, published 2025):
# pKd: −log10 of the molar value.
# Tests used:
# [1] = test system: C57BL/6 mice; assay: In vivo anti-drug antibody (ADA) titers in mice; design: species or system mouse; conditions: 4 mg/kg subcutaneous, day 20
# Protocol: Adalimumab and Adalimumab-Siglec Ligand conjugates were prepared as described in Example 4. The Adalimumab-Siglec ligand was conjugated by maleimide coupling to engineered cysteine residue L443C in the heavy chain constant region.
# To evaluate the production of antibodies specific to adalimumab and/or adalimumab-Siglec Ligand conjugates, C57BL/6 mice were immunized through subcutaneous injection with adalimumab or CD22 ligand-conjugated adalimumab. On study day −1, animals were randomized into treatment groups based on body weight. On study day 0, animals were bled for baseline serum and then injected subcutaneously with adalimumab or the adalimumab-Siglec Ligand conjugate. The individual antigens were prepared by making antigen solution in sterile PBS pH 7.4. […]
# ADA assays were performed on 96-well assay plates (Nunc Plates, Black 96-Well Immuno Plates, Thermo Scientific, Cat. No. 437111) coated with antigen, as follows. […] The excitation and emission settings for the QuantaBlu Fluorogenic Peroxide Substrates are 325 nm and 420 nm and the relative florescence units were measured using a SpectraMax plate reader. […] The titer cut point was determined by calculating the mean of the naïve, untreated mice and adding twice the standard deviation of the untreated samples.
# [2] = Pharmacokinetic monitoring in mice after single subcutaneous administration; assay type: in vivo, mouse; conditions: C57BL/6 mice, single subcutaneous dose 4 mg/kg
# Protocol: Pharmacokinetic monitoring was also carried out in the same C57BL/6 mice following a single subcutaneous administration of adalimumab or the SigL-conjugated adalimumab antibodies. Animals were bled via the retro-orbital sinus throughout the study under inhaled isoflurane anesthesia at 1 h, 6 h, 1-day, 2-days, 6-days, 13-days, 20 days and 27-days post test-article administration. Whole blood was collected into Microvette K2EDTA capillary collection tube (Sarstedt Inc) and then further processed following manufactures instructions to collect plasma. Levels of adalimumab and SigL-conjugated adalimumab in plasma samples were measured using an AlphaLISA human IgG assay (Perkin Elmer) following manufacturer's protocols.
# [3] = target: T1, biotinylated mouse siglec-2-Fc-Avi (Mus musculus, UniProt P35329); assay: SPR binding to mouse siglec-2/CD22; conditions: steady-state analysis, read-out: Mouse CD22 affinity
# T1 construct: made in house
# T1 sequence (P35329 22-708 limits assumed): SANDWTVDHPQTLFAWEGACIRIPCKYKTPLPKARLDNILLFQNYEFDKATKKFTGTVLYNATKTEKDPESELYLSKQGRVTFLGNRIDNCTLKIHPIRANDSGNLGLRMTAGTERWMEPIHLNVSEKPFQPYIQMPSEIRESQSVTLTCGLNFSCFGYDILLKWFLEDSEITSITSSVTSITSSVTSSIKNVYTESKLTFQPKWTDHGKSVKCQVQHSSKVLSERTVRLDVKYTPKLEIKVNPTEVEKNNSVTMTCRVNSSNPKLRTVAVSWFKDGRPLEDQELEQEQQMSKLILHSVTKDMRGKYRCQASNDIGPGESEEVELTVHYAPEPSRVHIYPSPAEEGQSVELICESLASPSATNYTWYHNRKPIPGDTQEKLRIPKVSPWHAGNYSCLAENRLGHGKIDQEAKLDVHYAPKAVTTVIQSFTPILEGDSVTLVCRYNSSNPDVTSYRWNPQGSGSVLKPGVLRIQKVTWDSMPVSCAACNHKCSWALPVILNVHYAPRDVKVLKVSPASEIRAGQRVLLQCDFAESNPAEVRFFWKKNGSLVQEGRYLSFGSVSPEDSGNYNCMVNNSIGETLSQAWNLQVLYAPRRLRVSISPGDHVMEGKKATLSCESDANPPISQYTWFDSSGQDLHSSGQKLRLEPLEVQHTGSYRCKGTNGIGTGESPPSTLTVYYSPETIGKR
# Summary of the method: (§1)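 Desialylated (SialoExo, 4 h, 37 °C) biotinylated CD22 was captured on a streptavidin chip at about 3500 RU, referenced against biotinylated FGFR2-Fc. Compounds at 50 μM to 97.6 nM in HEPES pH 7.5, 150 mM NaCl, 0.05% Tween-20, 1% DMSO: 90 s association, 120 s dissociation; KD by steady-state fit.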
# [4] = target: T2, biotinylated human siglec-2/CD22 protein-His-Avitag (Homo sapiens, UniProt P20273); assay: SPR binding to human siglec-2/CD22; conditions: steady-state analysis, read-out: Human CD22 affinity
# T2 construct: purchased Acro Biosystems SI2-H82E3
# T2 sequence (P20273 20-847): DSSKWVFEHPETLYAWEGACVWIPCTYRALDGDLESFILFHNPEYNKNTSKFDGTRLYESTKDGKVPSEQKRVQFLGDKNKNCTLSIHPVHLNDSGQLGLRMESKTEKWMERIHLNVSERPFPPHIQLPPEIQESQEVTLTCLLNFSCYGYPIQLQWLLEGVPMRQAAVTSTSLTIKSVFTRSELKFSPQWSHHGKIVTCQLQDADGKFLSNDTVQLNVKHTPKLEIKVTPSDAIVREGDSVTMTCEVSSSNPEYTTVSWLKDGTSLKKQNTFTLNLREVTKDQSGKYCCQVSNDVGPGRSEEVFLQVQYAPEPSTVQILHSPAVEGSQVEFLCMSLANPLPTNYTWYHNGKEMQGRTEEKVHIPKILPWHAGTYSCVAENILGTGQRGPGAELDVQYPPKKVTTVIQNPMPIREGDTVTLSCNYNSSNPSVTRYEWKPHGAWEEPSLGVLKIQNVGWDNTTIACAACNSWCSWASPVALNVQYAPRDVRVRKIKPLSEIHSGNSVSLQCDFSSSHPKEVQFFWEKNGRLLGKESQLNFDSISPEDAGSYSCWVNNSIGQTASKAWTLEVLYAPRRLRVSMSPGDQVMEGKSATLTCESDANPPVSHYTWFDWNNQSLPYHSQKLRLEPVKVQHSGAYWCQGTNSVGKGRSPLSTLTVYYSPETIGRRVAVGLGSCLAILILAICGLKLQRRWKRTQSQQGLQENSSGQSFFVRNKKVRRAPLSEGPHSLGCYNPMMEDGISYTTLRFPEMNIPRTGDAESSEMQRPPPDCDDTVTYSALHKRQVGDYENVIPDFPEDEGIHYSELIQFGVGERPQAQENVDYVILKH
# Summary of the method: as §1
# [5] = target: recombinant cynomolgus siglec-2/CD22 His-tag (Macaca fascicularis, UniProt A0A2K5WCZ6); assay: SPR binding to cynomolgus siglec-2/CD22; conditions: steady-state analysis, read-out: Cyno CD22 affinity
# Summary of the method: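 Cyno CD22-His, desialylated (SialoExo, 4 h, 37 °C), amine-coupled to CM5 at about 2500 RU. Compounds 50 μM to 97.6 nM in HEPES 10 mM, NaCl 150 mM, 0.05% Tween-20, pH 7.5, 1% DMSO; 90 s association, 120 s dissociation, DMSO solvent correction; steady-state affinity fit.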
# Sequence of recombinant cynomolgus siglec-2/CD22 His-tag (A0A2K5WCZ6 entry or part of it): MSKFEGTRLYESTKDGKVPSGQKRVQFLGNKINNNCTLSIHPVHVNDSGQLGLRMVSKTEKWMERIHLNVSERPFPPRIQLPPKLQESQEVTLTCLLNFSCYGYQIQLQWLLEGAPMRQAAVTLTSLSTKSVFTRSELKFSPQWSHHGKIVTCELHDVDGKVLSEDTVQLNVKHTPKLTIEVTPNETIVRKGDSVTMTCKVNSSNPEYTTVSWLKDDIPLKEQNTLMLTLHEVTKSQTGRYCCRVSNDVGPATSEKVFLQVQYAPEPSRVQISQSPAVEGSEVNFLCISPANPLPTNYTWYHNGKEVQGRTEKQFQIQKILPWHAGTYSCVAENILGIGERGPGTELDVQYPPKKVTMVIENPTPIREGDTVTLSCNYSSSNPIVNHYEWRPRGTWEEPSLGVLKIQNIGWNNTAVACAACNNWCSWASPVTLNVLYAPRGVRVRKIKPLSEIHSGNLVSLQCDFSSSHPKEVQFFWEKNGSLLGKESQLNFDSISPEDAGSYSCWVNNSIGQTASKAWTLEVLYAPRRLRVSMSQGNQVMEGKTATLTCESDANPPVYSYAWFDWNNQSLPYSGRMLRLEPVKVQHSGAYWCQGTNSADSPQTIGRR
Compound,ADA titers [1],clearance [2],time of falling below the limit of quantitation (BLOQ) [2],pKd [3],pKd [4],pKd [5]
Adalimumab,high ADA titers,significantly increased clearance,13 days,–,–,–
"C#Cc1ccc(CC(=O)NC[C@@H](O)[C@@H](O)[C@@H]2O[C@@](OCCCCCCc3cn(CCOCCOC)nn3)(C(=O)O)C[C@H](O)[C@H]2NC(=O)CO)cc1 [Compound 27, (2R,4S,5R,6R)-6-((1R,2R)-3-(2-(4-ethynylphenyl)acetamido)-1,2-dihydroxypropyl)-4-hydroxy-5-(2-hydroxyacetamido)-2-((6-(1-(2-(2-methoxyethoxy)ethyl)-1H-1,2,3-triazol-4-yl)hexyl)oxy)tetrahydro-2H-pyran-2-carboxylic acid]",–,–,–,> 6.00,> 6.00,> 6.00
